What all share (experiment): pull-down; His6-Fbp1 (wild type or mutant) pulled down on Talon metal affinity resin; reactions with two or all three proteins; 6 μg each of His6-Fbp1 (1.6 μM), Hsp70 (0.9 μM) and GST-Fes1 (1.09 μM), with or without ATP, ADP or AMP (2.5 mM); 50 mM Tris-HCl pH 7.5, 150 mM NaCl, 2% glycerol, 5 mM MgCl2; 30 min at 4°C; washed with 5 mM imidazole, eluted with 250 mM imidazole; stained SDS-PAGE gels, bands quantified …
Holding throughout (details): both partners purified

The target in assay [1] is T1, His6-Fbp1 (yeast (S. cerevisiae), UniProt P09201 1-348).
T1 construct: Fbp1, yeast gluconeogenic enzyme; the initiator methionine is present in the purified protein and is counted as residue 1; also called wild type His6-Fbp1; not shown: His6, N-terminal, kept
T1 sequence (looked up): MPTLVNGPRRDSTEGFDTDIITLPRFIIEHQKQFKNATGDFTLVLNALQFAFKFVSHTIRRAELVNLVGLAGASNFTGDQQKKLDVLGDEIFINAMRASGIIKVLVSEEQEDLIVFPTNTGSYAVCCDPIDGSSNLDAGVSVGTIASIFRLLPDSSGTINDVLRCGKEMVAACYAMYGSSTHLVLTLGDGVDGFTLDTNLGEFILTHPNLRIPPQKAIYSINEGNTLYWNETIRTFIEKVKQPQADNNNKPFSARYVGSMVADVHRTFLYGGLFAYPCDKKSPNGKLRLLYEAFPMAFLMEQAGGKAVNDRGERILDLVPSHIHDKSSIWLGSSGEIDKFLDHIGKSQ

Assay [2] addresses T2, His6-Fbp1Δ2–12 (yeast (S. cerevisiae), UniProt P09201 1-348, Δ2–12).
T2 construct: Fbp1, yeast gluconeogenic enzyme, lacking amino acid residues 2–12; the initiator methionine is counted as residue 1; source: E. coli expression, purified; not shown: His6, N-terminal, kept
T2 sequence (looked up): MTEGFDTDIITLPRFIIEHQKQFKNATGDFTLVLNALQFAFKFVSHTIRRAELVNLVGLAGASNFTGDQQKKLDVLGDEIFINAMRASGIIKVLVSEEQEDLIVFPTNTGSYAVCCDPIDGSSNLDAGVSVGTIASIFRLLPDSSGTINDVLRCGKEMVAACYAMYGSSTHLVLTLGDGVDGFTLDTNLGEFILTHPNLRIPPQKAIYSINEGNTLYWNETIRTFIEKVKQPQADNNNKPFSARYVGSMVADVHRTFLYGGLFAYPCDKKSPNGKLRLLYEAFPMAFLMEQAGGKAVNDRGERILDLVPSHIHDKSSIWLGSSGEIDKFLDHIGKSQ

Assay [3] addresses T3, His6-Fbp1ΔP2 (yeast (S. cerevisiae), UniProt P09201 1-348, ΔP2).
T3 construct: Fbp1, yeast gluconeogenic enzyme, proline 2 deleted; the initiator methionine is counted as residue 1; also called Fbp1P2Δ; source: E. coli expression, purified; not shown: His6, N-terminal, kept
T3 sequence (looked up): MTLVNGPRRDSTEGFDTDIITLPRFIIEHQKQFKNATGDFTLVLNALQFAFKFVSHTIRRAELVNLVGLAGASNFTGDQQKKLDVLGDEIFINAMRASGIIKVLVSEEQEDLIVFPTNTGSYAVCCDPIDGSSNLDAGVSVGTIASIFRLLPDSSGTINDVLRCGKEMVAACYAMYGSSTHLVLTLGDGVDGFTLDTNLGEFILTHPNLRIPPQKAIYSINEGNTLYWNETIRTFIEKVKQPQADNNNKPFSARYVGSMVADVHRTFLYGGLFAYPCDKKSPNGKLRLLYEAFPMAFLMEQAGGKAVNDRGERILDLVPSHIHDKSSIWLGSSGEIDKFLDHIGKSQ

In assay [4] the target is T4, His6-Fbp1 P2A (yeast (S. cerevisiae), UniProt P09201 1-348, P2A).
T4 construct: Fbp1, yeast gluconeogenic enzyme, P2A; the initiator methionine is counted as residue 1; source: E. coli expression, purified; not shown: His6, N-terminal, kept
T4 sequence (looked up): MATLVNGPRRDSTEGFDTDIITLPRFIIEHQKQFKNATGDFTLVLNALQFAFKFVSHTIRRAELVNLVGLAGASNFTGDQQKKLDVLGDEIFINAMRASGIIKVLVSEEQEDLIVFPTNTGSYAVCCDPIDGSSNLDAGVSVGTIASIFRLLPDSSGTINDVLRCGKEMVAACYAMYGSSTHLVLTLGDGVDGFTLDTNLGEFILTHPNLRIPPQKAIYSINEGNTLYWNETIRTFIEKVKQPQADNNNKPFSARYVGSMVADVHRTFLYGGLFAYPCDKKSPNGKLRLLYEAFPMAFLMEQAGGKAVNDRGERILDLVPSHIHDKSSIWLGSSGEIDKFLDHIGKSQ

The values below come from PMC6615629, “Hsp70-nucleotide exchange factor (NEF) Fes1 has non-NEF roles in degradation of gluconeogenic enzymes and cell wall integrity” (PLoS Genetics, 2019).

B1: GST-Fes1 (natural protein, yeast (S. cerevisiae), UniProt P38260 1-290, looked up)
chain: MEKLLQWSIANSQGDKEAMARAGQPDPKLLQQLFGGGGPDDPTLMKESMAVIMNPEVDLETKLVAFDNFEMLIENLDNANNIENLKLWEPLLDVLVQTKDEELRAAALSIIGTAVQNNLDSQNNFMKYDNGLRSLIEIASDKTKPLDVRTKAFYALSNLIRNHKDISEKFFKLNGLDCIAPVLSDNTAKPKLKMRAIALLTAYLSSVKIDENIISVLRKDGVIESTIECLSDESNLNIIDRVLSFLSHLISSGIKFNEQELHKLNEGYKHIEPLKDRLNEDDYLAVKYVL
notes: Fes1, yeast Hsp70 nucleotide exchange factor; also called wild type GST-Fes1; source: E. coli expression, purified as described [15]; not shown: GST, N-terminal, kept
As for B1, in assay [1], the “ratio of amounts Fes1/Ssa1 pulled down by Fbp1, no nucleotide” value came to 0.23; the “ratio of amounts Fes1/Ssa1 pulled down by Fbp1, with ADP” value amounted to 0.5; the “ratio of amounts Fes1/Ssa1 pulled down by Fbp1, with AMP” value came out at 0.18; the “ratio of amounts Fes1/Ssa1 pulled down by Fbp1, with ATP” value came to 0.58. Further, in assay [1], the “ratio of amounts Fes1/Ssa2 pulled down by Fbp1, no nucleotide” value amounted to 0.33; the “ratio of amounts Fes1/Ssa2 pulled down by Fbp1, with ADP” value worked out at 0.67; the “ratio of amounts Fes1/Ssa2 pulled down by Fbp1, with AMP” value was found to be 0.32; the “ratio of amounts Fes1/Ssa2 pulled down by Fbp1, with ATP” value stood at 0.79. The binding result in assay [2] was “binds”. Besides, the binding result in assay [3] is on record as “binds”. Further, the binding result in assay [4] was “binds”.
